This test deals with High-mannose IgG1 antibody (human). Put plainly: SPR. On the technique in general: SPR reads the build-up and loss of mass on a sensor chip optically.

1 substance from publication PMC6439443 can be followed below.

Usually Kd stands for the constant that tells how readily two partners part at equilibrium. Read a high Kd as weaker binding. Take “EndoS2 E186L (catalytically inactive EndoS2 variant) (from UniProt T1WGN1 44-843) (enzyme)”: the Kd is > 100 µM.
